Reference: US20200262867A1 (WNTRX PHARMACEUTICALS, published 2020)
*1 amine or outer side, *2 acyl side, *3 side chain or, on linkers, in order; H or OH if unused. Bridges are numbered along the chain shown (N, C = ends). Primed or numbered codes have the meaning given here. Where no end group is shown, it is not given here. Side-chain parts run from the residue outwards. [ ]: non-standard residue; d: D form. The star is where a group is joined. peptoid‑Q = (5-amino-5-oxopentyl)glycine, N-substituted glycine, NC(=O)CCCCN(CC(=O)[*:2])[*:1]; Diphenylacetyl = O=C(C(c1ccccc1)c1ccccc1)*; 2Nal = N[C@@H](Cc1ccc2ccccc2c1)C(=O)O; Hydrocinnamoyl = O=C(CCc1ccccc1)*; NMeR = CN[C@@H](CCCNC(=N)N)C(=O)O; Palmitoyl = CCCCCCCCCCCCCCCC(=O)*; Ala(cPr) = N[C@@H](CC1CC1)C(=O)O; hArg = N=C(N)NCCCC[C@H](N)C(=O)O; NMeE = CN[C@@H](CCC(=O)O)C(=O)O; NMeQ = CN[C@@H](CCC(N)=O)C(=O)O; dNMeQ = CN[C@H](CCC(N)=O)C(=O)O; Cha = N[C@@H](CC1CCCCC1)C(=O)O; Cba = N[C@@H](CC1CCC1)C(=O)O; S5 = C=CCCC[C@](C)(N)C(=O)O; Ac6c = NC1(C(=O)O)CCCCC1; PEG4′ = not defined here; Hexanoyl = CCCCCC(=O)*; Propionyl = CCC(=O)*; βAla = NCCC(=O)O

T1: β-catenin (UniProt P35222 1-781, limits assumed)
T1 construct: also called beta-catenin
T1 sequence (looked up): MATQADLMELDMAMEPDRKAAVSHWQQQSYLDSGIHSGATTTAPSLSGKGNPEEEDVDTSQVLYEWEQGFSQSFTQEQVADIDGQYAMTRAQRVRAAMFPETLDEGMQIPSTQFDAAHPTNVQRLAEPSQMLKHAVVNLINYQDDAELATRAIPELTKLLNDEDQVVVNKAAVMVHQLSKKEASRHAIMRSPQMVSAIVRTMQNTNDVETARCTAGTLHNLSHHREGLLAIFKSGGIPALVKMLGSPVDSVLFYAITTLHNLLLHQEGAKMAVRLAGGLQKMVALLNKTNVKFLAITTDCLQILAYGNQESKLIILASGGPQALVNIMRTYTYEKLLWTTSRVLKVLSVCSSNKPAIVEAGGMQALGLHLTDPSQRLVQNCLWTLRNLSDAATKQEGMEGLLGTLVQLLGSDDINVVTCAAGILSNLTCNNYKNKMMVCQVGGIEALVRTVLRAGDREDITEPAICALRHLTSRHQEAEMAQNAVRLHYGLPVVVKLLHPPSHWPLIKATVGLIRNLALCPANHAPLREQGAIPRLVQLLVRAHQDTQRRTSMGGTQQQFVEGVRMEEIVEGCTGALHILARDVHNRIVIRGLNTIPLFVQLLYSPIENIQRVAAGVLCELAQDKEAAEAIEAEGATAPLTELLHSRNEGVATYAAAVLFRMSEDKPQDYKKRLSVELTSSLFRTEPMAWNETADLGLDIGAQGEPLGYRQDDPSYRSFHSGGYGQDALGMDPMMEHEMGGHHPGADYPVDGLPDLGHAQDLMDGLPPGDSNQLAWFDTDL

T2: β-catenin, P35222
T2 chain: T1 sequence (looked up)

B1: SEQ ID NO: 163 (peptide)
peptide: HRQRSLQT[Cha]R[S5]IQR[S5][Cba][2Nal]
modifications: staple 11-15; not fully specified (residues 3, 7, N-terminus, C-terminus); printed as HR(N-methylQ)RSL(N-methylQ)T(Cha)RXIQRX(CBA)(2-Nal), X/X stapled, (S) α-methyl, N-terminal Ac, C-terminal NH2
B2: SEQ ID NO: 108 (peptide)
peptide: L[dNMeQ]TLR[S5]IQR[S5][Cba][2Nal]
modifications: staple 6-10; not fully specified (N-terminus, C-terminus); printed as L(N-methylQ)TLRXIQRX(CBA)(2-Nal), X/X stapled, (S) α-methyl, N-terminal Ac, C-terminal NH2
B3: SEQ ID NO: 180 (peptide)
peptide: Ac-HRQRSLQTLR[S5]IQR[S5][Cha][2Nal]-NH2
modifications: staple 11-15
SMILES: CC[C@H](C)[C@@H]1NC(=O)[C@@](C)(NC(=O)[C@H](CCCNC(=N)N)NC(=O)[C@H](CC(C)C)NC(=O)[C@@H](NC(=O)[C@H](CCC(N)=O)NC(=O)[C@H](CC(C)C)NC(=O)[C@H](CO)NC(=O)[C@H](CCCNC(=N)N)NC(=O)[C@H](CCC(N)=O)NC(=O)[C@H](CCCNC(=N)N)NC(=O)[C@H](Cc2c[nH]cn2)NC(C)=O)[C@@H](C)O)CCCC=CCCC[C@@](C)(C(=O)N[C@@H](CC2CCCCC2)C(=O)N[C@@H](Cc2ccc3ccccc3c2)C(N)=O)NC(=O)[C@H](CCCNC(=N)N)NC(=O)[C@H](CCC(N)=O)NC1=O
B4: SEQ ID NO: 116 (peptide)
peptide: L[dNMeQ]TLR[S5]I[dNMeQ]R[S5][Cba][2Nal]
modifications: staple 6-10; not fully specified (N-terminus, C-terminus); printed as L(N-methylQ)TLRXI(N-methylQ)RX(CBA)(2-Nal), X/X stapled, (S) α-methyl, N-terminal Ac, C-terminal NH2
B5: SEQ ID NO: 132 (peptide)
peptide: Ac-L[NMeQ]TL[hArg][S5]IQR[S5][Cba][2Nal]-NH2
modifications: staple 6-10; not fully specified; printed as L(N-methylQ)TL(homoR)XIQRX(CBA)(2-Nal)

These binders were tested against T1, β-catenin (assay: ALPHA Screen (BCL9/β-catenin);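 note: bead proximity readout with the polypeptide linked to donor beads and β-catenin fixed on acceptor beads, their binding bringing the beads close enough to emit signal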).
Description: In this assay, a polypeptide is conjugated to a donor bead and its target protein (i.e., β-catenin) is attached to an acceptor bead. When the two beads are in proximity due to the binding of the polypeptide to the target protein, a signal is generated and the binding affinity of the polypeptide can be quantitatively calculated. The assay may be conducted in the presence or absence of an unconjugated control polypeptide.
For Ac-HRQRSL[peptoid‑Q]TLR[S5]IQR[S5][Cba][2Nal]-NH2 (staple 11-15) [SEQ ID NO: 169], the IC50 was 328 nM.
Ac-HRQRSLQTLR[S5]IQR[S5][Ac6c][2Nal]-NH2 (staple 11-15) [SEQ ID NO: 177] was tested, and the IC50 was 211 nM.
Ac-HRQRSLQTLR[S5]IQR[S5][Cba][2Nal]-NH2 (staple 11-15) [SEQ ID NO: 147] was tested, and the IC50 was 186 nM.
Work on Propionyl-L[NMeQ]TLR[S5]IQR[S5][Cba][2Nal]-NH2 (staple 6-10; also: N-methyl-Gln at 2: filing says both D and L) [SEQ ID NO: 135] yielded an IC50 of 8540 nM.
In the case of {3,5‑dihydroxybenzoic acid}-L[NMeQ]TLR[S5]IQR[S5][Cba][2Nal]-NH2 (staple 6-10; also: N-methyl-Gln at 2: filing says both D and L) [SEQ ID NO: 140], the IC50 is reported as 8160 nM.
Ac-HR[NMeE]RSL[NMeQ]TLR[S5]IQR[S5][Cba][2Nal]-NH2 (staple 11-15) [SEQ ID NO: 154] showed an IC50 of 661 nM.
Binder B1 has an IC50 of 195 nM.
Ac-RSLQTLR[S5]IQR[S5]L[2Nal]-NH2 (staple 8-12; not fully specified; printed as RSLQTLRXIQRXL(2-Nal)) [SEQ ID NO: 4] gave an IC50 of 1910 nM.
Ac-HRQRSLQTLR[S5]IQR[S5][Ala(cPr)][2Nal]-NH2 (staple 11-15) [SEQ ID NO: 162] showed an IC50 of 322 nM.
Ac-HR[NMeQ]RSL[NMeQ]TLR[S5]IQR[S5][Cha][2Nal]-NH2 (staple 11-15; also: N-methylQ at 3 and 7: D or L (both stated)) [SEQ ID NO: 181] showed an IC50 of 186 nM.
For Ac-HRQ[NMeR]SLQTLR[S5]IQR[S5][Cba][2Nal]-NH2 (staple 11-15) [SEQ ID NO: 168], the IC50 was 434 nM.
With Hexanoyl-L[NMeQ]TLR[S5]IQR[S5][Cba][2Nal]-NH2 (staple 6-10; also: N-methyl-Gln at 2: filing says both D and L) [SEQ ID NO: 136] the IC50 was 3520 nM.
B2 showed an IC50 of 408 nM.
Ac-L[NMeQ]TLR[S5]IQ[hArg][S5][Cba][2Nal]-NH2 (staple 6-10; also: N-methyl-Gln at 2: filing says both D and L) [SEQ ID NO: 133] was tested, and the IC50 was 9200 nM.
{2‑cyclohexylacetyl}-L[NMeQ]TLR[S5]IQR[S5][Cba][2Nal]-NH2 (staple 6-10; also: N-methyl-Gln at 2: filing says both D and L) [SEQ ID NO: 138] showed an IC50 of 3820 nM.
Binder B3 has an IC50 of 138 nM.
Binder Ac-HRQ[hArg]SLQTLR[S5]IQR[S5][Cba][2Nal]-NH2 (staple 11-15) [SEQ ID NO: 167] has an IC50 of 356 nM.
In the case of Diphenylacetyl-L[NMeQ]TLR[S5]IQR[S5][Cba][2Nal]-NH2 (staple 6-10; also: N-methyl-Gln at 2: filing says both D and L) [SEQ ID NO: 139], the IC50 is reported as 4580 nM.
With B4 the IC50 was 26900 nM.
Hydrocinnamoyl-L[NMeQ]TLR[S5]IQR[S5][Cba][2Nal]-NH2 (staple 6-10; also: N-methyl-Gln at 2: filing says both D and L) [SEQ ID NO: 137] was tested, and the IC50 was 8360 nM.
For B5, the IC50 was 11200 nM.

Biological target: T2, β-catenin, P35222
Assay: ALPHA Screen (BCL9/β-catenin)
LQTLR[S5]IQR[S5]L[2Nal][βAla][βAla]GRKKRRQRRRPQK([PEG4′-Palmitoyl]) (staple 6-10) [SEQ ID NO: 34a] was tested, and the IC50 was 1380 nM.

These binders were tested against T1, β-catenin (assay: cell-based or functional assay).
For Ac-HRQRSLQTLR[S5]IQR[S5][Ac6c][2Nal]-NH2 (staple 11-15) [SEQ ID NO: 177], the “IC50, Wnt/Beta-Catenin-LEF-TCF-bla HCT116 inhibitor screen” value was 4450 nM.
With Ac-HRQRSLQTLR[S5]IQR[S5][Cba][2Nal]-NH2 (staple 11-15) [SEQ ID NO: 147] the “IC50, Wnt/Beta-Catenin-LEF-TCF-bla HCT116 inhibitor screen” value was 1540 nM.
With Ac-HR[NMeE]RSL[NMeQ]TLR[S5]IQR[S5][Cba][2Nal]-NH2 (staple 11-15) [SEQ ID NO: 154] the “IC50, Wnt/Beta-Catenin-LEF-TCF-bla HCT116 inhibitor screen” value was 2260 nM.
With B1 the “IC50, Wnt/Beta-Catenin-LEF-TCF-bla HCT116 inhibitor screen” value was 4430 nM.
For Ac-HRQRSLQTLR[S5]IQR[S5][Ala(cPr)][2Nal]-NH2 (staple 11-15) [SEQ ID NO: 162], the “IC50, Wnt/Beta-Catenin-LEF-TCF-bla HCT116 inhibitor screen” value was 7050 nM.
For Ac-HR[NMeQ]RSL[NMeQ]TLR[S5]IQR[S5][Cha][2Nal]-NH2 (staple 11-15; also: N-methylQ at 3 and 7: D or L (both stated)) [SEQ ID NO: 181], the “IC50, Wnt/Beta-Catenin-LEF-TCF-bla HCT116 inhibitor screen” value was 4460 nM.
With B2 the “IC50, Wnt/Beta-Catenin-LEF-TCF-bla HCT116 inhibitor screen” value was 3160 nM.
With B3 the “IC50, Wnt/Beta-Catenin-LEF-TCF-bla HCT116 inhibitor screen” value was 2210 nM.

Biological target: T2, β-catenin, P35222
Assay: cell-based or functional assay
In the case of LQTLR[S5]IQR[S5]L[2Nal][βAla][βAla]GRKKRRQRRRPQK([PEG4′-Palmitoyl]) (staple 6-10) [SEQ ID NO: 34a], the IC50, Colo320DM cell viability is reported as 20000 nM.
